{"source": "patent US6383734", "key": {"[1]": {"biological_target": "myc-tagged wild type Raf-1 (UniProt P04049)"}, "[2]": {"biological_target": "Raf-CX (Raf modified to translocate to the plasma membrane independently of Ras) (UniProt P04049)", "assay": "cell-based or functional assay"}, "[3]": {"biological_target": "myc-tagged wild type Raf-1 (UniProt P04049)", "assay": "cell-based or functional assay"}, "[4]": {"biological_target": "recombinant His-tagged mouse PAK3 from Sf9 cells (UniProt Q61036)", "sequence (Q61036 other isoform, or with tags, fused parts or gaps)": "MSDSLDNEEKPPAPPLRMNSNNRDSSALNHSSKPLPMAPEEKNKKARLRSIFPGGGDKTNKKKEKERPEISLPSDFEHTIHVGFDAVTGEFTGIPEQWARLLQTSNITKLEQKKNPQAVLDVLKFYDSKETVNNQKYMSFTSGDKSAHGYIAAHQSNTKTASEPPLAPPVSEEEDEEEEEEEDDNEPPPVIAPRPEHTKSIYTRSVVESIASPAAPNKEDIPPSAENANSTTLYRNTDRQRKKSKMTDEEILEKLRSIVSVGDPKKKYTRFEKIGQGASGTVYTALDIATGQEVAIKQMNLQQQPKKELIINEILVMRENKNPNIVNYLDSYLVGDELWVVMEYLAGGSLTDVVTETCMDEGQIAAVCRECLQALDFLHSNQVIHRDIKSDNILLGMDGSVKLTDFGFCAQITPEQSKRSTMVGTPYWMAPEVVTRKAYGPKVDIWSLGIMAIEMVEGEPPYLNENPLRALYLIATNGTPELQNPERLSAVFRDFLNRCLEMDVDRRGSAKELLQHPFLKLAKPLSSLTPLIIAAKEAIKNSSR"}, "[5]": {"system": "Raf-1 (331-345) peptide"}, "[6]": {"biological_target": "Raf-CR3 (wild type), recombinant Raf-1 catalytic fragment, calmodulin binding protein fusion (UniProt P04049)"}, "[7]": {"biological_target": "Raf-CR3[D338E339] (UniProt P04049)"}}, "data": [{"substance": "constitutively active HA-tagged PAK3[S91,A93,A95]", "values": [{"measurement": "increase in the amount of phosphorylated serine 338 (immunoprecipitation with phosphoserine 338-specific antibody, 9E10 blot)", "setting": "[1]", "result": "2.5 and 6.5-fold increases in the amount of phosphorylated serine 338"}]}, {"substance": "dominant negative HA-tagged PAK3[R278] (enzyme)", "values": [{"measurement": "reduction of the intrinsic Raf kinase activity in COS-7 cells", "setting": "[2]", "result": "> 70", "unit": "%"}, {"measurement": "reduction of the Ras[V12]-inducible activation of Raf-1 in COS-7 cells", "setting": "[3]", "result": "> 50", "unit": "%"}]}, {"substance": "GST-Cdc42 charged with GTPγS", "values": [{"measurement": "stimulation of the Raf-1 peptide and Raf-CR3 serine 338/339 kinase activity of PAK3", "setting": "[4]", "result": "stimulated up to six-fold by co-incubation with GST-Rac-GTPγS or GST-Cdc42-GTPγS"}]}, {"substance": "p37, purified 37-kD Raf-1 serine 338/339 protein kinase from rat spleen (truncated PAK3)", "values": [{"measurement": "specific activity (Raf-1 peptide phosphorylation)", "setting": "[5]", "result": "extremely high specific activity (19,500 pmol/min/mg)"}, {"measurement": "phosphorylation of Raf-CR3 (32P, SDS-PAGE, autoradiography)", "setting": "[6]", "result": "The purified kinase phosphorylated the wild type Raf-CR3"}, {"measurement": "share of incorporated 32P in the serine 338/339 tryptic peptides", "setting": "[6]", "result": "Over 95% of the 32P incorporated within the phosphorylated Raf-CR3 was associated with the serine 338/339 tryptic peptides"}, {"measurement": "phosphorylation of Raf-CR3 (32P, SDS-PAGE, autoradiography)", "setting": "[7]", "result": "failed to significantly phosphorylate the Raf-CR3[D338E339] mutant"}]}]}
